T1: PSMP真核蛋白 (human, UniProt Q1L6U9 36-139)
T1 construct: mature; Eukaryotically expressed secreted PSMP; The expression construct and any tags are not described; also called 重组PSMP真核蛋白; PSMP分泌蛋白
T1 sequence (looked up): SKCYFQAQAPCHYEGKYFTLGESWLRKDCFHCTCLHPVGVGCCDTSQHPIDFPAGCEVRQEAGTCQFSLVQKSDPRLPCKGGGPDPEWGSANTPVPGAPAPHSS

T2: PC3细胞内源性PSMP蛋白 (human, UniProt Q1L6U9 36-139, limits assumed)
T2 construct: Detected by Western blot and by immunocytochemistry in PC3 cells
T2 sequence (looked up): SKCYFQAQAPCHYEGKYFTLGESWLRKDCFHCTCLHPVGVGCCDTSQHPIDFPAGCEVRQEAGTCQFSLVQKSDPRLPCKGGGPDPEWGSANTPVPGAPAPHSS

T3: PSMP蛋白 (human, UniProt Q1L6U9 36-139, limits assumed)
T3 sequence (looked up): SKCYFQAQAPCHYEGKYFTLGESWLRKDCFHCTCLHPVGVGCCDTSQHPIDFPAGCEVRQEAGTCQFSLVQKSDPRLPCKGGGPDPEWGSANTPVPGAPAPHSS


Tests used:
PSMP真核蛋白 = biological target: T1, PSMP真核蛋白; assay: ELISA
PC3细胞内源性PSMP蛋白 = biological target: T2, PC3细胞内源性PSMP蛋白; assay: Western blot of PC3 cells
PSMP蛋白 [1] = biological target: T3, PSMP蛋白; assay: cytometric bead array, rabbit polyclonal on beads, 3D5 at 5 μg/ml as detection antibody
PSMP蛋白 [2] = biological target: T3, PSMP蛋白; assay: ELISA with 293T expression supernatant

binding result (PSMP真核蛋白)	binding result (PC3细胞内源性PSMP蛋白)	binding result (PSMP蛋白 [1])	binding result (PSMP蛋白 [2])	Binder
binds	binds	binds	–	抗PSMP的单克隆抗体3D5 (antibody, V domains shown, Mouse hybridoma antibody, heavy chain IgG1, light chain kappa, purified from ascites on Protein G Sepharose; also called 鼠单抗3D5; 3D5中和抗体) VH: EVQLQQSGPELVKPGASVKISCKASGYSFTGYFMNWVMQSHGKSLEWIGRINPYNGDTFYNQKFKGKATLTVDKSSSTAHMELRSLASEDSAVYYCARGGDGYYAFAYWGQGTLVTVSA VL: NIVMTQSPKSMSMSVGERVTLSCRASENVGTYVSWYQQKPEQSPKLLIYGASNRYTGVPDRFTGSGSATDFTLTISSVQAEDLADYHCGQSYSYMYTFGGGTKLEIKR
–	–	–	binds	共转染含有3D5重链和轻链基因的质粒的293T上清中表达的抗体 (antibody, V domains shown, It was tested as culture supernatant) VH: EVQLQQSGPELVKPGASVKISCKASGYSFTGYFMNWVMQSHGKSLEWIGRINPYNGDTFYNQKFKGKATLTVDKSSSTAHMELRSLASEDSAVYYCARGGDGYYAFAYWGQGTLVTVSA VL: NIVMTQSPKSMSMSVGERVTLSCRASENVGTYVSWYQQKPEQSPKLLIYGASNRYTGVPDRFTGSGSATDFTLTISSVQAEDLADYHCGQSYSYMYTFGGGTKLEIKR
